# From patent US12258605B2, “Alkane oxidation by modified hydroxylases” (The California Institute of Technology, priority 2005, dated 2025)
# How the values were obtained:
# [1] = Kinetic constants for n-alkanes: octane; type: biochemical
# Description: Rate measurements. Initial rates of product formation were determined at 25° C. in 100 mM KPi pH 8.0 buffer using purified protein (100 nM) and a substrate concentration of 1.6 mM. In a 5 mL-vial, 20 μL of alkane solution (in ethanol) were dissolved in 400 μL KPi buffer, to which 500 μL enzyme solution at 100-200 nM was added. Reaction was initiated by adding 100 μL of 5 mM NADPH solution, followed by stirring at 300 rpm for 1 minute, and quenched by adding 200 μL chloroform and stirring at 800 rpm for 10 sec. Solutions were transferred to an Eppendorf tube, to which internal standard (10 μL 25 mM 1-bromohexane in ethanol) was added. Tubes were vortexed for 10 sec and centrifuged for 30 sec at 10,000 g. Organic phase was removed and analyzed by GC. For propane, reactions were carried out in a 5 mL-scale using 100-400 nM purified enzyme, propane-saturated buffer (propane concentration≈1.6 mM) and a final NADPH concentration of 500 μM. Reactions were stopped by addition of 200 μL H2SO4 conc. and analyzed by derivatization to alkyl nitrites followed by GC-ECD analysis as described below.
# (§1) Products from alkane reactions were identified and quantified by gas chromatography using authentic standards and calibration curves with internal standards. For the reactions with alkanes from pentane to decane, GC analyses were carried out using a Shimadzu GC-17A gas chromatograph, Agilent HP5 column (30 m×0.32 mm×0.1 μm film), 1 μL injection, FID detector, and the following separation program: 250° C. inlet, 250° C. detector, 50° C. oven for 3 min, 5° C./min gradient to 100° C., 25° C./min gradient to 230° C., and 230° C. for 3 min. For butane and propane (TTN) reactions, GC analyses were carried out using a Hewlett-Packard 5890 Series II Plus gas chromatograph, Supelco SPB-1 column (60 m×0.52 mm×0.5 μm film), 0.5 μL injection, FID detector, and the following separation program: 250° C. inlet, 275° C. detector, 80° C. oven for 2 min, 10° C./min gradient to 110° C., 25° C./min gradient to 275° C., and 275° C. for 2.5 min. For ethane and propane (rate) reactions, analysis of reaction mixtures was carried out by derivatization to alkyl nitrites followed by GC-ECD analysis. For laurate, reaction product analysis was carried out by derivatization with N-methyl-N-trimethylsilylheptafluorobutyramide followed by extraction with hexane. Organic solutions were analyzed by FID-GC.
# To further investigate the evolution of substrate specificity, kinetic constants for the C5 to C8 alkanes were determined from Michaelis-Menten plots (Table 19). The preference of 35E11 and its evolutionary predecessors for medium-chain alkanes is indicated by their high C8/C5 specificities ((kcat/Km)8/(kcat/Km)5˜100), where Km appears to be the major contributing factor. C8/C5 specificity decreases to ˜5 in the immediate precursors of P450PMO and then switches altogether to the smaller alkane, becoming 0.4 in P450PMO. In P450PMO, catalytic efficiency is highest on propane and decreases along the alkane series, driven by decreasing kcat.
# [2] = Reactions on alkanes, total turnovers (Table 18): hexane; type: biochemical; details: hexane (6 C atoms); for % rel. act.: TTN normalized to the highest value of the variant's series; for TTN: total turnovers, standardized reaction conditions
# Description: Reactions on alkanes. Reactions with alkanes from pentane to decane were carried out at 3 mL-scale using 100 mM KPi pH 8.0 buffer containing 2% ethanol (to allow alkane solubilization) and purified protein. 2.5 mL KPi buffer were added with 60 μL of 90 mM alkane solution in ethanol (final conc.=1.8 mM), 150 μL enzyme solution at 1 μM (final conc.=50 nM), and 300 μL NADPH regeneration solution (100 units/mL isocitrate dehydrogenase, 70 mg/mL isocitrate, 1.5 mg/ml NADP^+). Vials were sealed and stirred for 24 hours at 4° C. 1 mL-aliquot of the reaction was removed, added with 10 μl internal standard (25 mM 1-bromohexane in ethanol), and extracted with 200 μl chloroform (30 sec vortexing, 1 min centrifugation at 10000 g). The organic phase was removed and analyzed by gas chromatography. Reactions with ethane, propane, and butane were carried out as described for longer alkanes with the only difference that alkane-saturated KPi buffer was used. Propane reactions with variants from HL5 and L9 libraries were performed on 1 mL-scale reaction using 20 nM enzyme to reduce oxygen limitation. Propane and butane reactions were analyzed by direct injection of reaction solution on the GC using 1-pentanol as internal standard. Ethane reaction products were functionalized (see below) and analyzed by GC using 1-butanol as internal standard. All measurements were performed in triplicate.
# as §1
# TTNs for each variant-substrate pair were determined using standardized reaction conditions (identical enzyme and substrate concentration, incubation time, cofactor regeneration system) (Table 18). TTN values were used to assess performance because TTN is a cumulative measure of both catalytic and coupling efficiency and because mutants were selected based on improvement in this property. To facilitate comparison among the variants, TTNs were normalized to the highest value in the series (MTN=Maximal Turnover Number) and plotted for the increasing-sized substrates (FIG. 38). A gradual shift of the enzyme's substrate preference during laboratory evolution is evident from these profiles. The marginal activity of wild-type BM3 on these substrates (MTN=150) is restricted to the long-chain alkanes, where it is a promiscuous function of BM3's high C12-C20 fatty acid hydroxylase activity. In the first evolutionary intermediates, substrate preference centers on medium-chain alkanes […], reflecting their selection for activity on octane. In 35E11, selected for activity on propane, preference still centers on C6-C8 alkanes but now extends towards the shorter ones, including propane. Propane activity becomes prevalent with the transition from variant ETS8 to 19A12. […]
Molecule,Km [1] [µM],kcat [1] [s⁻¹],% rel. act. [2] [%],TTN [2]
"35-E11: P450 BM-3 variant, SEQ ID NO:7: 53-5H substitutions plus E464G and I710T (protein, mutant P450 35-E11 protein sequence) TIKEMPQPKTFGELKNLPLLNTDKPVQALMKIADELGEIFKFEAPGCVTRYLSSQRLIKEACDESRFDKNLSQALKFFRDFSGDGLFTSWTHEINWKKAHNILLPSFSQQAMKGYHAMMVDIAVQLVQKWERLNADEHIEVSEDMTRLTLDTIGLCGFNYRFNSFYRDQPHPFIISMVRALDEVMNKLQRANPDDPAYDENKRQCQEDIKVMNDLVDKIIADRKARGEQSDDLLTQMLNGKDPETGEPLDDGNISYQIITFLIAGHETTSGLLSFALYFLVKNPHVLQKVVEEAARVLVDPVPSYKQVKQLKYVGMVLNEALRLWPTFPAFSLYAKEDTVLGGEYPLEKGDEVMVLIPQLHRDKTIWGDDVEEFRPERFENPSAIPQHAFKPFGNGQRACIGQQFALHEATLVLGMMLKHFDFEDHTNYELDIKETLTLKPEGFVVKAKSKKIPLGGIPSPSTGQSAKKVRKKAENAHNTPLLVLYGSNMGTAEGTARDLADIAMSKGFAPQVATLDSHAGNLPREGAVLIVTASYNGHPPDNAKQFVDWLDQASADEVKGVRYSVFGCGDKNWATTYQKVPAFIDETLAAKGAENIADRGEADASDDFEGTYEEWREHMWSDVAAYFNLDIENSEDNKSTLSLQFVDSAADMPLAKMHGAFSTNVVASKELQQPGSARSTRHLEIELPKEASYQEGDHLGVIPRNYEGTVNRVTARFGLDASQQIRLEAEEEKLAHLPLAKTVSVEELLQYVELQDPVTRTQLRAMAAKTVCPPHKVELEALLEKQAYKEQVLAKRLTMLELLEKYPACEMKFSEFIALLPSIRPRYYSISSSPRVDEKQASITVSVVSGEAWSGYGEYKGIASNYLAELQEGDTITCFISTPQSEFTLPKDPETPLIMVGPGTGVAPFRGFVQARKQLKEQGQSLGEAHLYFGCRSPHEDYLYQEELENAQSEGIITLHTAFSRMPNQPKTYVQHVMEQDGKKLIELLDQGAHFYICGDGSQMAPAVEATLMKSYADVHQVSEADARLWLQQLEEKGRYAKDVWAG",85 ± 25,6.5 ± 1.58,100.0,6350 ± 384
"P450PMO: P450 BM-3 variant, SEQ ID NO:125; 7-7 plus G443A and D698G; propane monooxygenase (protein, Mutant P450PMO protein sequence, 7-7 plus G443A and D698G; propane monooxygenase) TIKEMPQPKTFGELKNLPLLNTDKPVQALMKIADELGEIFKFEAPGCVTRYISSQRLIKEACDESRFDKNLSQELKFFRDFGGDGLFTSWTHEINWKKAHNILLPSFSQQAMKGYHAMMVDIAVQLVQKWERLNADEHIEVSEDMTRLTLDTIGLCGFNYRFNSFYRDQPHPFIISMVRALDEVMNKPQRANPDDPAYDENKRQCQEDIKVMNDLVDKIIADRKARGEQSDDLLTQMLNGKDPETGEPLDDGNISYQIITFLIAGHETTSGLLSFALYFLVKNPHVLQKVVEEAARVLVDPVPSYKQVKQLKYVGMVLNEALRLWPTFPAFSLYAKEDTVLGGEYPLEKGDEVMVLIPQLHRDKTVWGDDVEEFRPERFENPSAIPQHAFKPFGNGQRACIGQQFALHEATLVLGMMLKHFDFEDHTNYELDIKETLTLKPEAFVVKAKSKKIPLGGIPSPSTGQSAKKVRKKAENAHNTPLLVLYGSNMGTAEGTARDLADIAMSKGFAPQVATLDSHAGNLPREGAVLIVTASYNGHPPDNAKQFVDWLDQASADEVKGVRYSVFGCGDKNWATTYQKVPAFIDETLAAKGAENIADRGEADASDDFEGTYEEWREHMWSDVAAYFNLDIENSEDNKSTLSLQFVDSAADMPLAKMHGAFSTNVVASKELQQPGSARSTRHLEIELPKEASYQEGGHLGVIPRNYEGTVNRVTARFGLDASQQIRLEAEEEKLAHLPLAKTVSVEELLQYVELQDPVTRTQLRAMAAKTVCPPHKVELEALLEKQAYKEQVLAKRLTMLELLEKYPACEMKFSEFIALLPSIRPRYYSISSSPRVDEKQASITVSVVSGEAWSGYGEYKGIASNYLAELQEGDTITCFISTPQSEFTLPKDPETPLIMVGPGTGVAPFRGFVQARKQLKEQGQSLGEAHLYFGCRSPHEDYLYQEELENAQSEGIITLHTAFSRMPNQPKTYVQHVMEQDGKKLIELLDQGAHFYICGDGSQMAPAVEATLMKSYADVHQVSEADARLWLQQLEEKGRYAKDVWAG",185 ± 40,0.217 ± 0.067,12.7,2600 ± 205
"Wild-type BM-3: wild-type cytochrome P450 BM-3 from Bacillus megaterium, SEQ ID NO:1 (protein, listed as Bacillus megaterium) TIKEMPQPKTFGELKNLPLLNTDKPVQALMKIADELGEIFKFEAPGRVTRYLSSQRLIKEACDESRFDKNLSQALKFVRDFAGDGLFTSWTHEKNWKKAHNILLPSFSQQAMKGYHAMMVDIAVQLVQKWERLNADEHIEVPEDMTRLTLDTIGLCGFNYRFNSFYRDQPHPFITSMVRALDEAMNKLQRANPDDPAYDENKRQFQEDIKVMNDLVDKIIADRKASGEQSDDLLTHMLNGKDPETGEPLDDENIRYQIITFLIAGHETTSGLLSFALYFLVKNPHVLQKAAEEAARVLVDPVPSYKQVKQLKYVGMVLNEALRLWPTAPAFSLYAKEDTVLGGEYPLEKGDELMVLIPQLHRDKTIWGDDVEEFRPERFENPSAIPQHAFKPFGNGQRACIGQQFALHEATLVLGMMLKHFDFEDHTNYELDIKETLTLKPEGFVVKAKSKKIPLGGIPSPSTEQSAKKVRKKAENAHNTPLLVLYGSNMGTAEGTARDLADIAMSKGFAPQVATLDSHAGNLPREGAVLIVTASYNGHPPDNAKQFVDWLDQASADEVKGVRYSVFGCGDKNWATTYQKVPAFIDETLAAKGAENIADRGEADASDDFEGTYEEWREHMWSDVAAYFNLDIENSEDNKSTLSLQFVDSAADMPLAKMHGAFSTNVVASKELQQPGSARSTRHLEIELPKEASYQEGDHLGVIPRNYEGIVNRVTARFGLDASQQIRLEAEEEKLAHLPLAKTVSVEELLQYVELQDPVTRTQLRAMAAKTVCPPHKVELEALLEKQAYKEQVLAKRLTMLELLEKYPACEMKFSEFIALLPSIRPRYYSISSSPRVDEKQASITVSVVSGEAWSGYGEYKGIASNYLAELQEGDTITCFISTPQSEFTLPKDPETPLIMVGPGTGVAPFRGFVQARKQLKEQGQSLGEAHLYFGCRSPHEDYLYQEELENAQSEGIITLHTAFSRMPNQPKTYVQHVMEQDGKKLIELLDQGAHFYICGDGSQMAPAVEATLMKSYADVHQVSEADARLWLQQLEEKGRYAKDVWAG",> 5000,<0.083,6.3,10 ± 4
